These results are taken from publication PMC10022642, “Abscisic acid promotes auxin biosynthesis to inhibit primary root elongation in rice”.

Where a chain is given by its changes, count along the chain named.

For data set [1], the target named is T1, GST-OsbZIP46 (Oryza sativa, UniProt Q69TW5 1-324).
T1 sequence: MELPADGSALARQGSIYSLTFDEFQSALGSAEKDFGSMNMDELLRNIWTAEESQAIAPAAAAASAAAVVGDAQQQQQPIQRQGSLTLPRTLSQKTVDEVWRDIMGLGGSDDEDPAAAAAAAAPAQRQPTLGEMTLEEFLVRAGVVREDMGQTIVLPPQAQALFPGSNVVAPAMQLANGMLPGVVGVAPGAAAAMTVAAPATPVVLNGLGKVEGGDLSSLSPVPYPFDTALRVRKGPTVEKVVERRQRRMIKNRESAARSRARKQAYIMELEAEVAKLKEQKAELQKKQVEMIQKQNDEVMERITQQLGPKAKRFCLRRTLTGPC
Nature of the data set: EMSA; LightShift Chemiluminescent EMSA kit, 20 min at room temperature, 5% native polyacrylamide gel; buffer, salt and pH not stated. As to conditions: protein: recombinant; tags: GST (N-terminal, pGEX-6p-1); chain copies: 2.

For data set [2], the target named is T1, GST-OsbZIP46. Nature of the data set: EMSA; labeled mutant probe; LightShift Chemiluminescent EMSA kit, 20 min at room temperature, 5% native polyacrylamide gel; buffer, salt and pH not stated. The conditions noted are these: protein: recombinant; tags: GST (N-terminal, pGEX-6p-1); chain copies: 2; label: 3' biotin. In general terms: A gel shift assay detects complexes by their altered migration in electrophoresis.

B1: YUC8-Probe (YUC8/REIN7 promoter, P3 G-box) (dsDNA)
DNA 1: GTTGGAAAGCGTATTTTATTCGCAACGTGCGGTTCTTCCAGTTTCTCGGC
DNA 2: GCCGAGAAACTGGAAGAACCGCACGTTGCGAATAAAATACGCTTTCCAAC
For the molecule B1, the binding result with GST-OsbZIP46 [1] is recorded as “binds”.

B2: YUC8-Mutant Probe (dsDNA)
DNA 1: B1 DNA 1 with C26A, G27A, T28A, G29A
DNA 2: B1 DNA 2 with C22T, A23T, C24T, G25T
Take B2: the binding result with GST-OsbZIP46 [2] is “no binding”.
